Biological target: T1, ybbR-CENP-B-His6 (full length, JF549-labelled for smTIRF) (UniProt P07199)
T1 sequence: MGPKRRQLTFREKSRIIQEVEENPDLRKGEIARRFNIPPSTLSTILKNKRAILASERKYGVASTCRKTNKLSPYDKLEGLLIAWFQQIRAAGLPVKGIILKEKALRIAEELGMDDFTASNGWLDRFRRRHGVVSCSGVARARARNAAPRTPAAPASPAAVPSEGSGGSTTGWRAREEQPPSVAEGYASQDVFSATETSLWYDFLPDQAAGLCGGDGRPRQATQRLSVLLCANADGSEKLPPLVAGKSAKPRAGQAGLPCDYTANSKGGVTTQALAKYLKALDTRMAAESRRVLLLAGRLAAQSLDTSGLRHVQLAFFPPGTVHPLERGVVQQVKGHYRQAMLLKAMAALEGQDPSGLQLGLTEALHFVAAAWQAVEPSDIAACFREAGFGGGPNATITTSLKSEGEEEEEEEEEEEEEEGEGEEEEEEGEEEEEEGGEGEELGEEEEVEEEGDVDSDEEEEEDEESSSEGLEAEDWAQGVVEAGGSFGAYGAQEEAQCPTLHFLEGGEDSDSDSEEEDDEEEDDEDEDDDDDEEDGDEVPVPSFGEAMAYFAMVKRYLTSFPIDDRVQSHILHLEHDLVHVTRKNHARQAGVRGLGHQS
Assay: single-molecule colocalization (smTIRF)
Settings: smTIRF: about 5 nM CENP-B, 150 mM salt, EMSA: 10 mM Tris pH 7.5, 130 mM KCl, 3.2% glucose, 30 min at room temperature

GATCGGTCTCATAGCCTTCGTTGGAAACGGGAGAATCCCGGTGCCGAGGCCGCTCAATTGGTCGTAGACAGCTCTAGCACCGCTTAAACGCACGTACGCGCTGTCCCCCGCGTTTTAACCGCCAAGGGGATTACTCCCTAGTCTCCAGGCACGTGTCAGATATATACATCCTGTCACACTGTGGATC (double strand) [H3 1x601 BB mononucleosome]
binding signal (s (tau off,2)) (tau_off,1 6.87 s (66%), A2 34%, amino-C6-dT on reverse strand, 5% PAGE in 0.25x TBE): 48.3

H3 12x601 chromatin fiber DA3BB (1 B-Box at N6)
binding signal (s (tau off,2)) (150 mM KCl, tau_off,1 3.6 s (47%), A2 52%, amino-C6-dT, 5% PAGE in 0.25x …): 17.6

GATCGGTCTCATAGCCTGGAGAATCCCGGTGCCGAGGCCGCTCAATTGGTCGTAGACAGCTCTAGCACCGCTTAAACGCACGTACGCGCTGTCCCCCGCGTTTTAACCGCCAAGGGGATTACTCCCTAGTCTCCAGGCACGTGTCAGATATATACATCCTGTCACACTGTGGATC (double strand) [H3 1x601 mononucleosome (no B-Box)]
binding signal (s (tau off,2)) (tau_off,1 3.4 s (51%), A2 49%, amino-C6-dT on reverse strand, 5% PAGE in 0.25x TBE): 15.2

GATCGGTCTCATAGCCTTCGTTGGAAACGGGAGAATCCCGGTGCCGAGGCCGCTCAATTGGTCGTAGACAGCTCTAGCACCGCTTAAACGCACGTACGCGCTGTCCCCCGCGTTTTAACCGCCAAGGGGATTACTCCCTAGTCTCCAGGCACGTGTCAGATATATACATCCTGTCACACTGTGGATC (double strand) [CENP-A 1x601 BB mononucleosome]
binding signal (s (tau off,2)) (tau_off,1 6.8 s (51%), A2 49%, amino-C6-dT on reverse strand (smTIRF), 5% PAGE in 0.25x TBE): 50.2

CENP-A 12x601 chromatin fiber DA3BB (1 B-Box at N6)
binding signal (s (tau off,2)) (150 mM KCl, tau_off,1 4.9 s (67%), A2 33%, amino-C6-dT, 5% PAGE in 0.25x …): 51.4
